Experimental data published in patent publication US20150361464A1, “METHODS, REAGENTS AND CELLS FOR BIOSYNTHESIZING COMPOUNDS” (INVISTA North America S.á r.l., priority 2014, published 2015).

What was measured:
[1] = ω-transaminase enzyme activity assay, forward direction (glutarate semialdehyde to 5-aminopentanoate), cell free extract; format: biochemical; details: conclusion from reverse and forward direction assays
Protocol: (§1) A nucleotide sequence encoding an N-terminal His-tag was added to the genes from Chromobacterium violaceum and Rhodobacter sphaeroides encoding the ω-transaminases of SEQ ID NOs: 8 and 10 respectively (see FIG. 10) such that N-terminal HIS tagged ω-transaminases could be produced. Each of the resulting modified genes was cloned into a pET21a expression vector under control of the T7 promoter and each expression vector was transformed into a BL21[DE3] E. coli host. The resulting recombinant E. coli strains were cultivated at 37° C. in a 250 mL shake flask culture containing 50 mL LB media and antibiotic selection pressure, with shaking at 230 rpm. Each culture was induced overnight at 16° C. using 1 mM IPTG.
(§2) The pellet from each induced shake flask culture was harvested via centrifugation. Each pellet was resuspended and lysed via sonication. The cell debris was separated from the supernatant via centrifugation and the cell free extract was used immediately in enzyme activity assays.
Enzyme activity in the forward direction (i.e., glutarate semialdehyde to 5-aminopentanoate) was confirmed for the transaminase of SEQ ID NO: 10. Enzyme activity assays were performed in a buffer composed of a final concentration of 50 mM HEPES buffer (pH=7.5), 10 mM glutarate semialdehyde, 10 mM L-alanine and 100 μM pyridoxyl 5′ phosphate. Each enzyme activity assay reaction was initiated by adding a cell free extract of the ω-transaminase gene product or the empty vector control to the assay buffer containing the glutarate semialdehyde and incubated at 25° C. for 4 hours, with shaking at 250 rpm. The formation of pyruvate was quantified via RP-HPLC.

[2] = ω-transaminase enzyme activity assay, reverse direction (5-aminopentanoate to glutarate semialdehyde), cell free extract; format: biochemical; details: 10 mM 5-aminopentanoate, 10 mM pyruvate, pH 7.5, 25° C., 4 hours; against the empty vector control; FIG. 15
Protocol: as §1, §2
Enzyme activity assays in the reverse direction (i.e., 5-aminopentanoate to glutarate semialdehyde) were performed in a buffer composed of a final concentration of 50 mM HEPES buffer (pH=7.5), 10 mM 5-aminopentanoate, 10 mM pyruvate and 100 μM pyridoxyl 5′ phosphate. […] The formation of L-alanine from pyruvate was quantified via RP-HPLC.

B1: SEQ ID NO: 8: Chromobacterium violaceum ω-transaminase, N-terminal HIS tagged, cell free extract (protein, listed as Chromobacterium violaceum)
chain: MQKQRTTSQWRELDAAHHLHPFTDTASLNQAGARVMTRGEGVYLWDSEGNKIIDGMAGLWCVNVGYGRKDFAEAARRQMEELPFYNTFFKTTHPAVVELSSLLAEVTPAGFDRVFYTNSGSESVDTMIRMVRRYWDVQGKPEKKTLIGRWNGYHGSTIGGASLGGMKYMHEQGDLPIPGMAHIEQPWWYKHGKDMTPDEFGVVAARWLEEKILEIGADKVAAFVGEPIQGAGGVIVPPATYWPEIERICRKYDVLLVADEVICGFGRTGEWFGHQHFGFQPDLFTAAKGLSSGYLPIGAVFVGKRVAEGLIAGGDFNHGFTYSGHPVCAAVAHANVAALRDEGIVQRVKDDIGPYMQKRWRETFSRFEHVDDVRGVGMVQAFTLVKNKAKRELFPDFGEIGTLCRDIFFRNNLIMRACGDHIVSAPPLVMTRAEVDEMLAVAERCLEEFEQTLKARGLA
modifications: N-terminal His tag
notes: Chromobacterium violaceum ω-transaminase, N-terminal HIS tagged, cell free extract
With B1 the “acceptance of glutarate semialdehyde as substrate and synthesis of 5-aminopentanoate, concluded from reversibility of the ω-transaminase activity” value [1] was “accepted glutarate semialdehyde as substrate and synthesized 5-aminopentanoate” and the “acceptance of 5-aminopentanoate as substrate (formation of L-alanine from pyruvate, RP-HPLC)” value [2] was “accepted 5-aminopentanoate as substrate”.
